Measurements published in patent US20180222996A1 (SCOTT AND WHITE HEALTHCARE SWH, published 2018).

Molecular target: T1, Human CD123 on stably transfected CHO-K1 cells (CHO-CD123) (human, UniProt P26951 19-378)
T1 construct: whole, on cells; also called IL-3 receptor alpha subunit; cell surface CD123
Experiment: flow cytometry on CHO-CD123 cells, 1 µg/ml
Method: Log phase growing monolayer cells were harvested with trypsin/EDTA solution (ATCC) and washed once with culture media and once with PBS containing 1% BSA. 1×10⁶ cells were resuspended in 200 μl staining solution (PBS, 1% BSA, 3% normal goat serum and indicated concentration of 12F1, 12F1scFv-Fc or CD123xCD3 BIf) at room temperature for 1 hour. Human IgG1 (Sigma) was used as a control. Cells were rinsed twice with PBS containing 1% BSA and incubated with PE-conjugated goat anti-human or anti-mouse antibody (Jackson Lab) at room temperature for 1 hour. Cells were thrice washed with PBS containing 1% BSA, resuspended in 500 μl of PBS and analyzed on a Beckman Coulter Cytomic FC 500 flow cytometry.
The abilities of 12F1scFv-Fc and CD123xCD3 BIf to bind cell surface CD123 were examined by flow cytometry using CHO-K1 and CHO-CD123. 12F1 murine monoclonal antibody was used as a positive control. […] The binding affinities were tested in cell-based ELISA with CHO-CD123 cells.

T1 sequence (P26951 19-378): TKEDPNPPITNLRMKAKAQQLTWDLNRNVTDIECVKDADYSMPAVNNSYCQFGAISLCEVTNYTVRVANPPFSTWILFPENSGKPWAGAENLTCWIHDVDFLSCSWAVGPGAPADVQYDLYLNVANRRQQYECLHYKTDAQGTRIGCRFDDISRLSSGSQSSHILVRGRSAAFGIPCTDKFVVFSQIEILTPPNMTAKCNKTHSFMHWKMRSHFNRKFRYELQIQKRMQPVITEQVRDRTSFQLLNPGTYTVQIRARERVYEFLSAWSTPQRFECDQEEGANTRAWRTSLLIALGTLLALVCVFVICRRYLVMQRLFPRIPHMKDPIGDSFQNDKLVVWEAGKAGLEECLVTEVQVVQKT

binding result: binds
B1: 12F1 murine anti-human CD123 monoclonal antibody (antibody, V domains shown)
VH: VQLQESGPGLVKPSQSLSLTCSVTDYSITSGYYWNWIRQFPGNKLEWMGYISYDGSNNYNPSLKNRISITRDTSKNQFFLKLSSVTTEDTATYYCSRGEGFYFDSWGQGTTLTVSS
VL: DIMMSQSPSSLAVSVGEKFTMTCKSSQSLFFGSTQKNYLAWYQQKPGQSPKLLIYWASTRESGVPDRFTGSGSGTDFTLAISSVMPEDLAVYYCQQYYNYPWTFGGGTKLEIK
notes: Murine monoclonal antibody from hybridoma
